From article PMC5409194 (Journal of Visualized Experiments : JoVE, 2017) come the findings set out here.

The data set deals with the molecule itself. Nature of the data set: […].

B1: C-terminal fragment (residue 323-785) of vaccinia virus protein D5 (domain or fragment)
chain: GNKLFNIAQRILDTNSVLLTERGDYIVWINNSWKFNSEEPLITKLILSIRHQLPKEYSSELLCPRKRKTVEANIRDMLVDSVETDTYPDKLPFKNGVLDLVDGMFYSGDDAKKYTCTVSTGFKFDDTKFVEDSPEMEELMNIINDIQPLTDENKKNRELYEKTLSSCLCGATKGCLTFFFGETATGKSTTKRLLKSAIGDLFVETGQTILTDVLDKGPNPFIANMHLKRSVFCSELPDFACSGSKKIRSDNIKKLTEPCVIGRPCFSNKINNRNHATIIIDTNYKPVFDRIDNALMRRIAVVRFRTHFSQPSGREAAENNDAYDKVKLLDEGLDGKIQNNRYRFAFLYLLVKWYKKYHVPIMKLYPTPEEIPDFAFYLKIGTLLVSSSVKHIPLMTDLSKKGYILYDNVVTLPLTTFQQKISKYFNSRLFGHDIESFINRHKKFANVSDEYLQYIFIEDISSP
The stoichiometry N is the number of molecules, sites or subunits per partner or assembly. As for B1, the “stoichiometry N” value came out at 6.
